The results in this text go back to a protein production outcome set (Wang et al. 2014).

The nature of the data set: label from the status in PepcDB records.
As to “SAWALKLPLADEVIESGLVQDFDASLSGIGQELGAGAYSMSDVLALPIFKQEESSLPPDNENKILPFQYVLCAATSPAVKLHDETLTYLNQGQSYEIRMLDNRKLGELPEINGKLVKSIFRVVFHDRRLQYTEHQQLEGWRWNRPGDRILDIDIPMSVGIIDPRANPTQLNTVEFLWDPAKRTSVFIQVHCISTEFTMRKHGGEKGVPFRVQIDTFKENENGEYTEHLHSASCQIKVFKPKGADRKQKTDREKMEKRTPHEKEKYQPSYETTILTECSPWPEITYVNNSPSPGFNSSHSSFSLGEGNGSPNHQPEPPPPVTDNLLPTTTPQEAQQWLHRNRFSTFTRLFTNFSGADLLKLTRDDVIQICGPADGIRLFNALKGRMVRPRLTIYVCQESLQLREQQQQQQQQQQKHEDGDSNGTFFVYHAIYLEELTAVELTEKIAQLFSISPCQISQIYKQGPTGIHVLISDEMIQNFQEEACFILDTMKAETNDSYHIILK”, the protein production result is “failed”.

For the sequence “SDIVRKTIDNDISTKWRLKTLSEKLNLSEVTIRKKLENENTNFYRILLDARMQKAARLVLDSDTHINKVSYAVGMSSVSYFIKLFSDYYGLTPKQFHLKYKHRNTGEKAAFMLYN”, the protein production result is “failed”.

Turning to “SDMGTSALSKKPWWTLPQNFHAPMVFHMEEDQEELIFGHGDTYLRCIEVHSHTLIQLESWFTATGQTRVTVGPHRARQWLLHMFCCVGSQDSYHHARGLEMLERVRSQPLTNDDLVTSISVPPYTGDLSLAPRISGTVCLSVPQPSPYQVIGCSGFHLSSLYP”, the protein production entry is listed as “failed”.

Take “SDRGQAEEAAGRQARAVSLAIADSPSVAEAIRTPDPTALLQPYAVRVMRDTDVDFVTIMNPEGIRWTHPEPTEIGHLFQGHIERAQRGQTFTETYTGTLGPSVRAVTPIVDDGRIVGLVSAGIKVEEIS”: the protein production entry is listed as “failed”.

With “SDSLETTQQDYPDCFFQHVKVNVKNPYDLTRQVCSSMDQWLTERLDSEPLSLAILVDSATSILYLSNQSNSFSLLFHYLRVMGRKLSPTLYCVCQLIHFDMGYGDELLKEAKFYDSLILQLDALPLGVPSEQDGRLSIEERDQAISTVLFKILENQIKFFTI”, the protein production entry is “failed”.

Take “SDWLWQTDAHGRLVHVPERFVEVAKLPPSLLIGAPLADVIGMLCPEDGRCAMGVAAKMAQREPMNDLVVHVVIGGTPRLWSLTAKPMFDAAGEFAGYRGVGRDVTERWRAEQAEAENRAKSSFLAMMSHEIRTPMNGVLGLANSLLETK”: the protein production entry is listed as “failed”.

As to “SDYEKFLLFGDSITEFAFNTRPIEDGKDQYALGAALVNEYTRKMDILQRGFKGYTSRWALKILPEILKHESNIVMATIFLGANDACSAGPQSVPLPEFIDNIRQMVSLMKSYHIRPIIIGPGLVDREKWEKEKSEEIALGYFRTNENFAIYSDALAKLANEEKVPFVALNKAFQQEGGDAWQQLLTDGLHFSGKGYKIFHDELLKVIETFYPQYHPKNMQYKLKDWRDVLDDGSNIMS”, the protein production entry is reported as “not failed”.

Regarding “SEAEGNQVYFAVYTFKARNPNELSVSANQKLKILEFKDVTGNTEWWLAEVNGKKGYVPSNYIRKTE”, the protein production result is on record as “not failed”.

On to “SEEDNRAPQLWRKTLTAPAPFADETNCQCQAPHEKLTIAQARLGTPADRPVRVYADGIFDLFHSGHARALMQAKTLFPNSYLLVGVCSDDLTHKFKGFTVMNEAERYEALRHCRYVDEVIRDAPWTLTPEFLEKHKIDFVAHDDIPYSSAGSDDVYKHIKEAGMFVPTQRTEGISTSDIITRIVRDYDVYARRNLQRGYTAKELNVSFINEKRYRFQNQVDKMKEKVKNVEERSKEFVNRVEEKSHDLIQKWEEKSREFIGNFLELFGPDGAWKQMFQERSSRMLQALSPKQSPVSSPTRSRSPSRSPSPTFSWLPLKTSPPSSPKAASASISSMSEGDEDEK”, for which the protein production entry was “failed”.

On to “SEILRKFKILGRSKSPIFAFTVTAGLALTAVTGSATAVSIFRDSPSNKIATAVEGVVRSSRAIYSITLTVADYKYTLRRLPADSDEYLQRLTEVHSRSAKRILKLCESNKGFYVKAGQFVATLKLVPKEYSLALSSLQDKAVPCNFQEIKQVLTSNLGQNLTEIYLSFDEEPIAAASIAQVHHAVLKNHQEVAVKVQYPGLKQNMMLDTMIMSFLSKSVAKIFPEYRFDWLVYEFVKSISQELDFLQEAKNSERIAKNFKHNKMITIPTVFSEFTTTQVLTMQFCKGFKVDDVESLKRTNVSPEKVAKVLVEVFAEMIFVHGFIHGDPHPGNILVSPEGQNGFSLVLLDHGNCKTLDEAFRRDFCRLWEALILLDSNKIQELGKQFGVGKYAKFFPVIFTGRTSESGLIRSITLKLGAPQRVRLLAYAKYAVYGLGYKPTSEPDFVEKSVISRSVMLMSYLRLRLILELMELFQGMKKLKHTIYGFYGQLVGGITNSVKRITCSV”, for which the protein production result is listed as “failed”.

Regarding “SEQSSPGFRQTHLQDLSEATQDVKEENHYLTPRSVLLELDNIIASSDSGESIETDGPDQVSGRIECHYEPMESYFFKETSHESVDSSKEEPQTLPETQDGDLHLQEQGSGIDWCLSPADVEAQTTNDQKGSASLTVVQLSILINNIPDESQVEKLNVFLSPPDVINYLALTEATGRICVSQWEGPRRLGCIFCHGDHLLAVNDLKPQSLEEVSLFLTRSIQKEKLKLTIGRIPNSETFHAASCMCPSKCQSAAPSQLDKPRLNRAPKRSPAIKKSQQKGARE”, the protein production result was “not failed”.

In the case of “SGARRQALIDAQSWRLRYERIMREVGVATVEYEAASGRATWGMGAGKVLGEDVARISSLDEWLEHIAPDERGLVEATWSSVASGETWASEQSYTLMRTDGEPLRVRERLACVRGADDSVEMVVGMLRPEPLESGDG”, the protein production result is listed as “failed”.

In the case of “SGCRCCKIIQSYLFDPVQVPSPGYVNEVNSCKLDEDDTDKLKGKWSSEVLVQKNDPQRQGSKKTESSSRTADPWEPCWPHQGPLPQGDAGGEHHACGVNGIGPAATPQPTGNSSPTQDDRGSWASTANTVPPTQPFLEGGGTRKQDCVLLASEGTQVMRNGDSRAPSEAESFALEVQDHVFQIPAPDYLQHWGPAGDNVDHNEKDCVFKNHTEDESLEGIQPPVGEHGLNTPFSVRRSWDSLNEDVETEVLSICFNEKGPVHAMPVVDSGNRQEDTHGSDGDGDGEIVDEDAAVAEALAALEAATAGEDLDETD”, the protein production result is “not failed”.

“SGFRKMAFPSGKVEGCMVQVTCGTTTLNGLWLDDTVYCPRHVICTAEDMLNPNYEDLLIRKSNHSFLVQAGNVQLRVIGHSMQNCLLRLKVDTSNPKTPKYKFVRIQPGQTFSVLACYNGSPSGVYQCAMRPNHTIKGSFLNGSCGSVGFNIDYDCVSFCYMHHMELPTGVHAGTDLEGKFYGPFVDRQTAQAAGTDTTITLNVLAWLYAAVINGDRWFLNRFTTTLNDFNLVAMKYNYEPLTQDHVDILGPLSAQTGIAVLDMCAALKELLQNGMNGRTILGSTILEDEFTPFDVVRQCSGVTFQ”: the protein production result is on record as “not failed”.

Take “SGIIKMAIRFDRRAYPPQITPKMCLLEWCRREKLPQPVYETVQRTIDRMFCSVVTVAEQKYQSTLWDKSKKLAEQTAAIVCLRSQGLPEGRLGEESPSLNKRKREAPDQDPGGPR”: the protein production result is “not failed”.

Take “SGSSMEEKVVAVIMVGGPTKGTRFRPLSLNIPKPLFPIAGQPMVHHPISACKRIPNLAQIYLVGFYEEREFALYVSAISNELKVPVRYLREDKPHGSAGGLYHFRNLIMEDSPSHIFLLNCDVCCSFPLPKMLEAHRGYGGIGTLLVIKVSPESASQFGELVADPVTNELLHYTEKPETFVSDRINCGVYVFTPEIFNAIGDVSTQRKDRATLKRVSSFEALQPATRIPTDFVRLDQDILSPLAGKKRLYTYETMDFWEQIKSPGMSLRCSGLYLSQFRLTSPQLLASGDGTRSAIVIGDVYIHPSAKVHPTAKIGPNVSISANARVGPGVRLMSCIILDDVEIMENAVVTNAIVGWKSSIGRWSRVQAEGVYNSKLGVTILGDSVAVEDEVAVTSSIVLPNKTLNVSVQDEIIL”: the protein production entry was “failed”.

As to “SHMEIVPDTSVVIDGRVSDQVKADADPDTDVDGMGFAGATVVVPEAVVGELEAQANDGRETGWEGLEELQTLVDLAEEGTIDVEYVGRRPDAIEKREAGEGQIDALIRDIAGDRDATLVTSDDVQAEVARAKGLAVEFVDPVKRTVDRLQI”, the protein production result is given as “not failed”.

For the sequence “SHPCFVQGRPELLSQIKRKQSARTVEDKQVNEQTQQNLEVVMAEMRAMREKAKNMEDKMNKLTKENRDMWTQMGSMRQQHARQQQYFKKLLHFLVSVMQPGLSKRVAKRGVLEIDFCAANGTAGPNSKRARMNSEEGPYKDVCDLLESLQRETQEPFSRRFTNNEGPLISEVTDEFGNSPVGRGSAQDLFGDTFGAQSSRYSDGGATSSREQSPHPIISQPQSNSAGAHGANEQKPDDMYMGSGPLTHENIHRGISALKRDYQGASPASGGPSTSSSAPSGAGAGARMAQKRAAPYKNATRQMAQPQQDYSGGFVNNYSGFMPSDPSMIPYQPSHQYLQPHQKLMAIEDQHHPTTSTSSTNADPHQNLYSPTLGLSPSFDRQLSQELQEYFTGTDTSLESFRDLVSNHNWDDFGNNVPLDDDEEGSEDPLRQLALENAPETSNYDGAEDLLFDNEQQYPENGFDVPDPNYLPLADEEIFPHSPALRTPSPSDPNLV”, the protein production result is given as “not failed”.

Turning to “SINKVLDHFRRKGINQHVQNGYHGIVMNNFECEPAFYTCVEVTAGNRLFYHIVDSDEVSTKILMEFNKMNLPGEVTFLPLNKLDVRDTAYPETNDAIPMISKLRYNPRFDKAFKHVFGKTLICRSMEVSTQLARAFTMDCITLEGDQVSHRGALTGGYYDTRKSRLELQKDVRKAEEELGELEA”, the protein production result is listed as “failed”.

Consider “SKVEVIYKELGKQHRFSFKGQIFFVSIDSMMEKIDFNIEDSVIVLNFDHAHLWDDSAVNAIDTIVRKFEEKNNVVYVEKLNADSRKIISELSYLNETHL”, for which the protein production result was “failed”.

Regarding “SKVWKYFGFDTNAEGCILQWKKIYCRICMAQIAYSGNTSNLSYHLEKNHPEEFCEFVKSN”, the protein production entry is reported as “not failed”.

As for “SLDDDDYPAYTMGRAAAILGTTPAFLRALGDARLITPLRSEGGHRRYSRYQLRIAARARELVDQGTPVEAACRIIILEDQLEDALRLNEEMRRSSDQPTA”, the protein production result is given as “failed”.

“SLGSLPPAAMESMESLRLKDKNEPVQNLPIQKSIDDVDSKLKGIGKPRKFSKFSLYKQLHRHHLHDADSISSIDSTSSYFNHYRSHHNLIHGLKPHFKLFHPSS”: the protein production result is listed as “failed”.

As to “SLKKNPRDIVTKKANIRIKTALSKMFNAMAKVTYDIDEADGDVIVNTAFIDKKYLDEAFDILKEAYKKGLGISDRFGIVEENDRIKIQTICAVTLDGIFLRNSVPLIPKYGGILEITEDKERFIDIIGYDGSSLDPHEVFFNFVDCEKTFLAGFREVHRVAREKLEEVLKKLNWNGIKAIGEPNNELYGIGVNKDMCGVVTMGGINPLVLLKENEIPIELKAMHEVVRFSDLKSYKEI”, the protein production result is “not failed”.

For the sequence “SLKKVITVNEWYTTTVAATMLGRRPTDEDAILVSAPATSRPNVRIKAVFDGHAGEATSQYCAKHAAKHLGKLSEFTFAEVKKACLSLDAEIIRKLGPKHVAGSTGIIVAIERLSAPVVENVVGREIVPRAHEETFVPLEKLIQEEEEAEHPELVGRYPRVPDVQQKTIPAGSFLVTAINIGDSRATLIHSDGGLTRLSKDHKPNHPTEASRIEKAGGSVETFDVPRVDGVLALSRAFGDSDFKMNPNLPPEEQKVIAVPDVRQFYALSSDLLLLACDGVYEPSGMDWAYVRDLTVAEMQRSKGDLEEVAARVMDYAYDMNSQDNISVMLVAFHNQEVEHPTAVYKVVSGQVDKVEWDVAGKKGN”, the protein production result is given as “not failed”.

For “SLLDVAVSPDDRFILTADRDEKIRVSWAAAPHSIESFCLGHTEFVSRISVVPTQPGLLLSSSGDGTLRLWEYRSGRQLHCCHLASLQELVDPQAPQKFAASRIAFWCQENCVALLCDGTSVVYIFQLDARRQQLVYRQQLAFQHQVWDVAFEETQGLWVLQDCQEAPLVLYRPVGDQWQSVPESTVLKKVSGVLRGNWAMLEGSAGADASFSSLYKATFDNVTSYLKKKEERLQQQLEKKQRRRSPPPGPDGHAKKMRPGEATLSC”, the protein production result is “failed”.
